Test results: US20230399384A1 (University of Texas, published 2023)
Positions count from the first letter of the chain named.

B1: CoV2-24 (antibody, V domains shown)
VH: QVQLHQWGAGLLKPSETLSRTCAVYGGSFSGYYWTWIRQAPGKGLEWIGEINHGGSTRYNPSLESRVSISVDTSKKQFSLELRSVTAADTAIYYCARGLVGGGAFDIWGQGTMVTVSS
VL: NFMLTQPSSVSVAPGQTARITCGGDNIGSTGVHWYQQKPGQAPVLVVYDDTDRPSGIPERFSGSKSGNTAALTISGVEAGDEADFYCQVWDSSGHSYVFGTGTKVTVL
B2: CoV2-03 (antibody, V domains shown)
VH: QVQLVESGAEMKKPGASVKVSCKTSGYTFTNSYIHWVRQAPGQGLEWMGWINPISGGTNYAQKFQGRVTMTRDTSINTAYMELSRLRSDDTAVYYCARDRGDYDYGWGTSPFYFDYWGQGTLVTVSS
VL: not shown
B3: CoV2-19 (antibody, V domains shown)
VH: B2 VH with E6Q
VL: AIQLTQSPSSLSASVGDRVTITCRTSHTVNSYLNWYQQEPGKAPKLLIYAASNLQSGVPSRFSGSGSGTDFSLTIHNLQPEDFATYYCQQSYRTPLTFGQGTKVDIK
B4: CoV2-02 (antibody, V domains shown)
VH: B2 VH with L4M, E6Q, T124S
VL: AIQMTQSPSSLSASVGDRVTITCRASQPISKYLNWYQQKPGKAPKLLIYAASSLQSGVPSSFSGSGFGTDFTLTISNLQPEDFATYYCQQSNGIPLTFGGGTKVDIK
B5: CoV2-22 (antibody, V domains shown)
VH: B2 VH with E6Q
VL: DVQMTQSPSSLSASVGDRVTITCRASQSISSYLNWYQQKPGKAPKLLIYGASSLESGVPSRFSGGGSGTDFTLTISSLQPEDFASYYCQQSYSIPFTFGPGTTVDIK
B6: CoV2-28 (antibody, V domains shown)
VH: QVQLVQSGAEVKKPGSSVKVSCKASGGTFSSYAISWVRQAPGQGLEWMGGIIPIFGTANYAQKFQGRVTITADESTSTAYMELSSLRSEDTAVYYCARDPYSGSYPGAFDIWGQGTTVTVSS
VL: QAVVTQPASVSGSPGQSITISCTGTSSDVGGYNYVSWYQQHPGKAPKLMIYDVSNRPSGVSNRFSGSKSGNTASLTISGLQAEDEADYYCNSYTRSSTSVFGTGTQLTVL
B7: CoV2-05 (antibody, V domains shown)
VH: EVQLVESGGGVARPGGSLRLSCAASGFTFDDYGMSWVRQVPGKGLEWVAGINWNGERIGYADSVKGRFTISRDNAKNSLYLQMNSLRAEDTALYYCARPSGDYVAWYFNLWGRGTLVTVSS
VL: QAALTQPRSVSGSPGQSVTISCTGTGSDVGPYKYVSWYQQHPGKAPKLMIYDVNERPSGVPDRFSGSKSGNTASLTISGLQAEDEADYYCGSYAGNNKWVFGGGTKLTVL
B8: CoV2-34 (antibody, V domains shown)
VH: QVQLHQWGAGLLKPSETLSRTCAVYGGSFSGYSWTWIRQAPGKGLEWIGEVNHGGKTNYNPSLESRLSISVDTSKNQFSLELRSVTAADTAVYYCARGYDTNWYGDGYNWFDPWGQGTLVSVSS
VL: DIQMTQSPSSLSASVGDRVTITCRASQKIDNFLNWYQQKPGKAPKLLIHGASNLQGGVSSRFSGSRSGTDFTLTITNLQPEDFATYYCQQSYNTPITFGQGTRLEIK
B9: CoV2-35 (antibody, V domains shown)
VH: B8 VH with V51I, K56S, N58K, L67V, S68T, N76K
VL: NFMLTQPASVSVAPGKTASITCGGDNIGTKSVHWYRQKPGQAPVLVIYYDSDRPSGIPERFSGSNSGNTATLTISRVEAGDEADYYCQVGDSSSHVVFGGGTKVTVL
B10: CoV2-31 (antibody, V domains shown)
VH: B8 VH with H5Q, V51I, K56S, L67V, N76K, S121T
VL: QAVVTQPLSVSVALGQTAKIPCGGNNIGRKSVHWYQQKPGQAPVLVIYRDNNRPSGIPERFSGSNSGNTATLTISRAQAGDEADYYCQVWDSNTGVFGTGTKVTVL
B11: CoV2-14 (antibody, V domains shown)
VH: EVQLQQSGPGLVKPSQTLSLTCAISGDSVSSNSAAWNWIRQSPSRGLEWLGRTYYRSKWYNDYAVSVKSRITINPDTSKNQFSLQLNSVTPEDTAVYYCAREEQQLVHDYYYYGMDVWGQGTMVTVSS
VL: QAVVTQPASVSGSPGQSITISCTGTSSDIGAYNYISWYQQHPGKAPKLIIYEVSNRPSGISYRFSGSKSGNTASLTISGLQAEDEANYYCSSYAGSISFGGGTKVTVL
B12: CoV2-06 (antibody, V domains shown)
VH: QVELQESGPGLVKPSGTLSLTCAVSGGSISSNNWWTWVRQPPGKGLEWIGEIHHSGGTNYNPSLKSRVTMSVDKSKNQFSLNLYSVTAADTAVYYCTRDRAGGTYSGFDFWGQGTLVTVSS
VL: B6 VL with N91S, R95S, S99V, T103G, Q106K, L107V
B13: CoV2-26 (antibody, V domains shown)
VH: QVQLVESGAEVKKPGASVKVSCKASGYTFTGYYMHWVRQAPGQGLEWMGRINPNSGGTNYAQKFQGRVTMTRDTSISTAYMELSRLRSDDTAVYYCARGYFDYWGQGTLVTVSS
VL: QSALTQPPSASGTPGQRVTISCSGSSSNIGSNSVNWYQQVPGTAPKLLIYANDHRPSGVPDRFSGSKSGTSASLAISGLQSEDEADYYCAAWDNSLKGVVFGGGTKVTVL
B14: CoV2-09 (antibody, V domains shown)
VH: B8 VH with S33Y, V51I, K56S, N58R, L67V, N76K, V92I, G115D, Q116R, S121T
VL: QSALTQDPSVSVALGQTVRITCQGDSLRGSFASWYRQKPGQAPVLVIFGINNRPSGVPDRFSGSSSGNTASLTITGAQAEDEADYYCNSRESNSNRILFGGGTKVTVL
B15: CoV2-16 (antibody, V domains shown)
VH: B8 VH with S33Y, V51I, K56S, N58R, L67V, N76K, V92I, G115D, Q116R, S121T
VL: QAVVTQPPSVSGTPGQRVTISCSGSSSSIGSNTVHWYQHLPGTAPKLLMYNNNERPSGVPARFSGSKSGTSASLVITGLQADDEAEYYCQSYDTGLSGHVFGSGTELTVL
B16: CoV2-13 (antibody, V domains shown)
VH: QVQLQQSGAEVKKPGSSVKVSCKASGGNFRSHTFSWVRQAPGQGLEWMGEIMPRFGATNYAQKFQGRVTITADESTGTTYMELSSLKSHDTAVYFCAADLGSGRKFDSWAQGTLVSVSS
VL: NIQMTQSPSSLSASVGDRVTITCRASQGIGSDLGWYQQRPGKAPKRLIYAASSLQSGVPSRFSGSGSGTEFTLTISSLQPEDFATYYCLQHNSYPLTFGQGTKVEIK
B17: 07 (antibody, V domains shown)
VH: EVQLVESGGGVFQPGRSLRLSCAASGFTFSDFGMHWVRQAPGKGLEWVAVTSHDGSSKFYADSVKGRFTVSRDNSKNKLYLEMNSLRVEDSAVYYCAKDSDNGYDADFFDYWGQGTLVTVSS
VL: not shown
notes: also called CoV2-07; phage clone 07
B18: CoV2-23 (antibody, V domains shown)
VH: QVQLVESGGGLVQPGRSLRLSCAASGFTFDDYAMHWVRQAPGKGLEWVSGISWNSGSIGYADSVKGRFTISRDNAKNSLYLQMNSLRAEDTALYYCAKDMDIWFGGGLDYWGQGTLVSVSS
VL: DVQMTQSPSSVSASVGDRVTITCRASEGIGNWLAWYQQKPGKAPKLLIYEASSLQSGVPSRFSGSGSGADFTLTISSLQPEDFGTYYCLQANSFPITFGRGTKLEIK

molecular target: S protein of SARS-CoV (SARS-CoV, UniProt P59594 14-1195); assay: ELISA, purified IgG1 on coated S protein

Does B1 bind?
Result: no binding (tested: one concentration, not printed)

Does B2 bind?
Result: no binding (tested: one concentration, not printed)

Does B3 bind?
Result: no binding (tested: one concentration, not printed)

Does B4 bind?
Result: no binding (tested: one concentration, not printed)

Does B5 bind?
Result: no binding (tested: one concentration, not printed)

Does B6 bind?
Result: no binding (tested: one concentration, not printed)

Does B7 bind?
Result: no binding (tested: one concentration, not printed)

Does B8 bind?
Result: no binding (tested: one concentration, not printed)

Does B9 bind?
Result: no binding (tested: one concentration, not printed)

Does B10 bind?
Result: no binding (tested: one concentration, not printed)

molecular target: SARS-CoV-2 S protein on live SARS-CoV-2-mNG reporter virus (SARS-CoV-2, UniProt P0DTC2 14-1273); assay: cell-based or functional assay

For B11, which “NC50 (neutralisation of reporter SARS-CoV-2, Vero E6 cells)” value (from here on “NC50”) is on record?
Its value is 0.46 µg/mL.

B12 was tested. Which “NC50” value did it give?
Its value is 0.15 µg/mL.

B13 was tested. Which “NC50” value did it give?
The value was 0.41 µg/mL.

For B14, which “NC50” value is on record?
The value was 0.66 µg/mL.

Which “NC50” value does the source give for B15 here?
Its value is 0.82 µg/mL.

molecular target: T1, sCoV2-RBD (Fc-tagged RBD of SARS-CoV-2 S protein) (SARS-CoV-2; human, UniProt P0DTC2 319-541); assay: BLI (Octet) blocking of ACE2 binding to captured sCoV2-RBD

With B16 as the binder, how does the IC50 read?
The IC50 was 2.29 µg/mL.

B2 was tested. Which IC50 did it give?
Its IC50 is 14.8 µg/mL.

For B3, which IC50 is on record?
Its IC50 is 14.5 µg/mL.

Which IC50 does the source give for B4 here?
The IC50 was 17.7 µg/mL.

For B7, which IC50 is on record?
Its IC50 is 4.18 µg/mL.

molecular target: T2, sCoV-RBD (Fc-tagged RBD of SARS-CoV S protein) (SARS-CoV; human, UniProt P59594 306-527); assay: ELISA, purified IgG1 on coated RBD protein

Does B8 bind?
Result: no binding (tested: one concentration, not printed)

Does B9 bind?
Result: no binding (tested: one concentration, not printed)

Does B10 bind?
Result: no binding (tested: one concentration, not printed)

molecular target: SARS-CoV-2 RBD protein (Sino Biological, Cat: 40592-V08B) (SARS-CoV-2, UniProt P0DTC2 319-541); assay: BLI (Octet), mAb on Protein A sensor

How did the Kd turn out when B16 was run?
The Kd was 50.7 nM.

And the koff?
The koff was 0.00103 s⁻¹.

And the kon?
Its kon is 20300 M⁻¹ s⁻¹.

B3 was tested. Which Kd did it give?
Its Kd is 138 nM.

And the koff?
The koff was 0.00137 s⁻¹.

What about the kon of the same binder?
The kon was 9870 M⁻¹ s⁻¹.

With B4 as the binder, how does the Kd read?
Its Kd is 7.85 nM.

And the koff?
The koff was 0.000499 s⁻¹.

What about the kon of the same binder?
The kon was 63500 M⁻¹ s⁻¹.

Which results are given for B7?
Kd: 7.16 nM; koff: 0.000602 s⁻¹; kon: 84100 M⁻¹ s⁻¹

molecular target: T2, sCoV-RBD (Fc-tagged RBD of SARS-CoV S …); assay: phage ELISA, scFv on phage

Does B1 bind?
Result: no binding

Does B2 bind?
Result: no binding

Does B3 bind?
Result: no binding

Does B4 bind?
Result: no binding

Does B5 bind?
Result: no binding

Does B6 bind?
Result: no binding

Does B7 bind?
Result: no binding

Does B17 bind?
Result: no binding

molecular target: T1, sCoV2-RBD (Fc-tagged RBD of SARS-CoV-2 …); assay: ELISA titration on coated sCoV2-RBD

With B16 as the binder, how does the EC50 read?
Its EC50 is 0.17 nM.

Which EC50 does the source give for B1 here?
The EC50 was 29.7 nM.

Which EC50 does the source give for B2 here?
Its EC50 is 3.35 nM.

B3 was tested. Which EC50 did it give?
Its EC50 is 5.02 nM.

With B4 as the binder, how does the EC50 read?
Its EC50 is 0.47 nM.

Which EC50 does the source give for B5 here?
Its EC50 is 3.41 nM.

How did the EC50 turn out when B6 was run?
Its EC50 is 130 nM.

Which EC50 does the source give for B7 here?
The EC50 was 7.82 nM.

For B18, which EC50 is on record?
The EC50 was 1.04 nM.

With B8 as the binder, how does the EC50 read?
The EC50 was 6.67 nM.

For B9, which EC50 is on record?
Its EC50 is 40 nM.

Which EC50 does the source give for B10 here?
Its EC50 is 58.1 nM.
